Experiment [1] addresses TSH receptor (full length human TSHR) coated on tubes (human) (UniProt P16473). The experiment is described as follows: 125I-TSH binding inhibition read against NIBSC 90/672; mean over 10, 30 and 100 ng/mL, in serum.
Experiment [2] deals with TSH receptor (TSHR) coated on tubes (human) (UniProt P16473). The experiment is described as follows: inhibition of 125I-K1-70 IgG binding to TSHR coated tubes; negative control 0.001 µg/mL in HBD serum pool.
Experiment [3] has as its target TSHR with Asp160 mutated to Lys, expressed in CHO cells (human) (UniProt P16473). The experiment is described as follows: cell-based or functional assay.
The target of experiment [4] is TSHR with Arg255 mutated to Ala, expressed in CHO cells (human) (UniProt P16473). The experiment is described as follows: cell-based or functional assay.

Data on two substances can be found in patent US20110300138A1 (published 2011).

Chain of M22 IgG (antibody) (VH): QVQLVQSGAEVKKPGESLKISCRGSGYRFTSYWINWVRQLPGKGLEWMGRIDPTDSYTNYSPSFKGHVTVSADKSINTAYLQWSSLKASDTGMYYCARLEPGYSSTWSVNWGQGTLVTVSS
Chain of M22 IgG (antibody) (V domain): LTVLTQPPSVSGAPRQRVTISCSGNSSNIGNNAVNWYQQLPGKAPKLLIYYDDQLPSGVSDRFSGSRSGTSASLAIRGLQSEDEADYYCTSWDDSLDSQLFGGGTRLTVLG

M22 IgG (antibody) yielded a mean units/mg in experiment [1] of 131 units/mg.
The substance 5B3 IgG (antibody) displayed an Inhibition of binding (%) in experiment [2] of 3.7%. For the same substance, in experiment [3], the % inhibition of TSH stimulation (stimulator given as M22), mutated TSHR; 5B3 10 µg/mL turned out to be 0%; the % inhibition of TSH stimulation (stimulator given as M22), mutated TSHR; 5B3 100 µg/mL was determined as 11%; the Mutated/wild type (%) of cyclic AMP produced; test sample: 5B3 10 µg/mL + M22 amounted to 69%; the Mutated/wild type (%) of cyclic AMP produced; test sample: 5B3 100 µg/mL + M22 came to 60%. Besides, in experiment [4], the % inhibition of TSH stimulation; 5B3 10 µg/mL stood at 12%, the % inhibition of TSH stimulation; 5B3 100 µg/mL was determined as 2%, the Cyclic AMP produced; 5B3 10 µg/mL + TSH 3 ng/mL is 56.4 pmol/mL and the Cyclic AMP produced; 5B3 100 µg/mL + TSH 3 ng/mL turned out to be 62.5 pmol/mL. Besides, in experiment [4], the Mutated/wild type (%) of cyclic AMP produced; 5B3 10 µg/mL + TSH 3 ng/mL was determined as 75% and the Mutated/wild type (%) of cyclic AMP produced; 5B3 100 µg/mL + TSH 3 ng/mL came out at 92%.
